Experiment: soluble on expression in E. coli; label from the status in PepcDB or PDB records

Sequence	soluble on expression in E. coli
MAHHHHHHMGDFALISMNGDRVFISLDPVFTSQSLWLQAAEGLGEREGVVPIASTETLHNLVEYMAFQAKRMAGVAEGECKGGQTVTLPISCTTCSGSGGLGYDVHSLLPDHDIAFLDRFGGTGGVWEVEQQEKLMELMATADFVGHGRLSRLCAVYISCRLMSATESDILSWFSVCGDRCGGVASADPEADDGNRAGERVLRDAERLRILNQMRKYIEIED	not soluble
MSLDTFGLIQLAELIYEYCGIDFFKNLSSLESKISERLKELGLSCWEYGGYLRVEPKEWDTLIDLITVNETYFFREENLLEEFQKVILPKYKDRTPNNPLRIWSSACSSGEEPYTLAILSEETGLFETGAVEIIASDIDKKVLEKARRGLYNKKSFSFRTMPKEILDKYFISFGDDYKVKDSIRAMVDFRRVNLLDENKLEKVGEVDIVFCRNVLIYFDTKAINKVINSLYKVLRAGGYLFLGHAETITGMNTGFETIYTPSAFYYRKGERHEGHHHHHH	soluble
MAHDLQKMMDGELVRLQLEIKKEQERRLAEKMIPVFGVWQSPINQYEFADPEQAISCAAGLLDKVLREVKDDLSKEGGLQGWNGNLLRIYVQHVNESDFAVLQPYLKDK	not soluble
MGSDKIHHHHHHMKSIKELYRIGTGPSSSHTMGPRKAAEMFLTRHPEAASFKVTLYGSLAATGKGHMTDVAIIDTLKPTAPVDIIWQPKIFLPFHPNGMNFVALDAGGNELENWTVYSVGGGALAEDNKQPSIESPEVYSMNSMTEILDWCEHTGKSYWEYVKECEDPDIWDYLKEVWDTMKESVQRGLEQEGVLPGPLNLRRKASTYYIRATGYKASLQSRGLVFAYALAVSEENASGGKIVTAPTCGSCGVMPAVLYHLAKSREFSEMRILRALATAGLIGNIVKQNASISGAEVGCQGEVGVACAMASAAANQLFGGSPAQIEYAAEMGLEHHLGMTCDPVCGLVQIPCIERNAYAAARALDANLYSSFTDGMHRVSFDKVIQVMKQTGHDLPSLYKETSEGGLAKDYKPM	not soluble
MSLAETLEKNAIDKSEYPQTAELENRCVNILADLWNAPKDMSYLGTSTVGSSEACMLGGLAMKFRWRNNAEKRGLDIQAKRPNLIISSGYQVCWEKFCVYWDVDMRVVPMDKNHLSLDVDKVFDLVDEYTIGVVGILGITYTGKFDDIQLLDEKVEAYNETNEHQLVIHIDGASGAMFTPFVNPELPWDFRLKNVVSINTSGHKYGLVYPGVGWILWKDKEYLPKELIFEVSYLGGSMPTMAINFSRSASQIIGQYYNFLRYGFEGYREIHEKTKKTAIYLAKTVEKSGYFEIINDGANLPIVCYKMKEGLDVEWTLYDLADQLLMKGWQVPAYPLPADLSDTIIQRFVCRADLGYNVAEEFAADFADAIHNLEHARVLYHDKERNDSYGFTHEGHHHHHH	soluble
MGSDKIHHHHHHMDSYKQYIKEALPNLSIHSYKQNEEGWDNVAIIVNDELLFRFPRKQEYAMRIPLEKELCTLLSCSLHEIEVPKYHLFYEKNTDAIPLCSYYTLIHGEPLKTEIVTTLEKQERKALITQLATFLAALHSIPLKSVTALGFPIEKTLTYWKELQAKLNEYVTNSLTSFQKSTLNRLFENFFACLATSKFQNTIIHADFTHHHILFDKQNKTISGVIDFGDAQIGDPAFDFAGLYYDFGHEFTTSVYEQYSTLTSHHDPLLIHRITSFYQYSPLLHNMIYNFETKNELEFLASIEQLKVILQG	not soluble
MGSSHHHHHHGKTIFVIVPTNEEQVAFLEALAKQDELNFDWQNPPTEPGQPVVILIPSDMVEWFLEMLKAKGIPFTVYVEEGGSENLYFQGGGGGGAASLGDFGQEYQAIMESAGKGFGMLYRDMTAPPASYQWECVEDLSLQYSVAYASLTEPYTVNVLTSMITVTRTESTPGVSYNLIGIACTYDGNCGDLKRGNLLTFSLRKDLIIIVTGSVLSNGITNFLPVSYYVVQLASSCSSANIANVTRPFSVGASSVWMQLWQ	not soluble
MAHHHHHHMSLEPTLRDLLHSKLQWIFVGGKGGVGKTTTSCALATLFASTPVHDAVTNTTRPRRVLLISTDPAHNLSDAFSQKFGKTPVPVNGMEETLFAMEVDPTTFTHGGFGAMLGFPGHIATDADAPSPFAALGNILKEAAGTLPGIDELSVFAEILRGVQQLSYDVVIFDTAPTGHTLRLLALPHTLNSTMEKLLSVEGLNTLIQAASAVLSSTTNLGDMSSLMPAFKQWRENVQEVQRQFTDAEKTAFICVCIPEFLSVYETERLVQELMKYDISCDSIVVNQLVLKPSSEPDCRMCNARQKIQSKYLAQIDSLYEDFHVVKMPLLSDEVRGVPALQRFAQFLLEPYDADRHGYIDVCGAAS	soluble
GPGMATEEMKKLATVMAIGTANPPNCYYQADFPDFYFRVTNSDHLINLKQKFKRLCENSRIEKRYLHVTEEILKENPNIAAYEATSLNVRHKMQVKGVAELGKEAALKAIKEWGQPKSKITHLIVCCLAGVDMPGADYQLTKLLDLDPSVKRFMFYHLGCYAGGTVLRLAKDIAENNKGARVLIVCSEMTTTCFRGPSETHLDSMIGQALFGDGAAAVIVGADPDLTVERPIFELVSTAQTIVPESHGAIEGHLLESGLSFHLYKTVPTLISNNIKTCLSDAFTPLNISDWNSLFWIAHPGGPAILDQVTAKVGLEKEKLKVTRQVLKDYGNMSSATVFFIMDEMRKKSLENGQATTGEGLEWGVLFGFGPGITVETVVLRSVPVIS	soluble
MSGESVIEFTGFIKACRLFRENRLAEAEAVCTNLLRKNPLDQATWALKMQCLSDSTYVDELENEDMGLAETFLDQNVIAPNARPGTSFARPKTSAKGVNPILRPTTNAGRPLSGVVRPQSSFKSGSMDQAVRTARTAKTARAVSSTSARNMRLGTASMAAGADGEFVNLARLNIDKYAADPQVNRQLFEYVFYYLNDIRVAHQIAGTASKAAGFEDYYWKNQLAKCYLRLGMLQDATKQLQSSLEQKKLIETFALLSKAYNRVDQPMAALKTYSAGLEVFPENVTMLTGMARVQEALGEYDESVKLYKRVLDAESNNIEAIACVATTYYYGGKPELAMRYYRRILQMGVSSPELFLNIGLCCMAAQQFDFALSSILRAQSTMTDDVAADVWYNIGQILVDIGDLVSAARSFRIALSHDPDHSESLVNLGILKHREGKIDEARSLYSSATSKNPYMFEGNYNLGLVSFTQGKYHECRELIEKALAAFPEHEHCKKILNHLKPLYESI	not soluble
KKTEWSREEEEKLLHLAKLMPTQWRTIAPIIGRTAAQCLEHYEFLLDKAAQRD	soluble
MQAYFDQLDRVRYEGPQSTNPLAFRHYNPDELVLGKRMEDHLRFAACYWHTFCWNGADMFGVGAFNRPWQQPGEALELAKRKADVAFEFFHKLNVPFYCFHDVDVSPEGASLKEYKNNFAQMVDVLAAKQEQSGVKLLWGTANCFTNPRYGAGAATNPDPEVFSWAATQVVTAMNATHKLGGENYVLWGGREGYETLLNTDLRQEREQIGRFMQMVVEHKHKMGFQGTLLIEPKPQEPTKHQYDYDVATVYGFLKQFGLEKEIKVNIEANHATLAGHSFHHEIATAIALGIFGSVDANRGDAQLGWDTDQFPISVEENALVMYEILKAGGFTTGGLNFDAKVRRQSTDKYDLFYGHIGAMDTMALSLKIAARMVEDGELDKRVAKRYAGWNGELGQQILKGQLSLGELAQYAEQHNLAPVHQSGHQELLENLVNRYLFDK	not soluble
MSLKSLEIFSGAGGLAKGLELAGFQHASFIELNKDACNSLRSNFNPKLVYQGDVADFDLSSQEGIEVIAGGPPCQPFSLGGKHLAHEDRRDMFPHAVRYVEYYRPKAFIFENVKGLLRKSFADYFEYILLRLTYPNLGILQNEDWKGHLTRLKEIEFNLYKGIKYKVSYQLLNAADYGVPQKRERVVIVGIRADLDIDWKFPKRTHSEDRLNWEKYVTGEYWEKHNEPKRFNKDIAEKLQKKYGIFEPEKKPWQTVRDTLSDIPHPLGNHKITGHEYRDGARIYPGHTGSGIDEPSKTIKAGGHGVPGGENMIRYDDGTVRYFTSYEAKLLQTFPEEFVISGAWGEAMRQIGNAVPVKLSEILGKHLMGVLSEKSSLHNEGHHHHHH	soluble
GIDPFTHMATFISVQLKKTSEVDLAKPLVKFIQQTYPSGGEEQAQYCRAAEELSKLRRAAVGRPLDKHEGALETLLRYYDQICSIEPKFPFSENQICLTFTWKDAFDKGSLFGGSVKLALASLGYEKSCVLFNCAALASQIAAEQNLDNDEGLKIAAKHYQFASGAFLHIKETVLSALSREPTVDISPDTVGTLSLIMLAQAQEVFFLKATRDKMKDAIIAKLANQAADYFGDAFKQCQYKDTLPKEVFPVLAAKHCIMQANAEYHQSILAKQQYYFGEEIARLQHAAELIKTVASRYDEYVNVKDFSDKINRALAAAKKDNDFIYHDRVPDLKDLDPIGKATLVKSTPVNVPISQKFTDLFEKMVPVSVQQSLAAYNQRKADLVNRSIAQMREATTLANGVLASLNLPAAIEDVSGDTVPQSILTKSRSVIEQGGIQTVDQLIKELPELLQRNREILDESLRLLDEEEATDNDLRAKFKERWQRTPSNELYKPLRAEGTNFRTVLDKAVQADGQVKECYQSHRDTIVLLCKPEPELNAAIPSANPAKTMQGSEVVNVLKSLLSNLDEVKKEREGLENDLKSVNFDMTSKFLTALAQDGVINEEALSVTELDRVYGGLTTKVQESLKKQEGLLKNIQVSHQEFSKMKQSNNEANLREEVLKNLATAYDNFVELVANLKEGTKFYNELTEILVRFQNKCSDIVFAR	soluble
MGGSHHHHHHGMASALRGLEEPGPRPTATPCGCVKPALETGNLLTEPVGYLESCFSAKNGTPRQPSICSYSRACLRIRKRIFNNPEHSLMGLEQFSHVWILFVFHKNGHLSCKAKVQPPRLNGAKTGVFSTRSPHRPNAIGLTLAKLEKVEGGAIYLSGIDMIHGTPVLDIKPYIAEYDSPQNVMEPLADFNLQNNQHTPNTVSQSDSKTDSCDQRQLSGCDEPQPHHSTKRKPKCPEDRTSEENYLTHSDTARIQQAFPMHREIAVDFGLESRRDQSSSVAEEQIGPYCPEKSFSEKGTDKKLERVEGAAVLQGSRAETQPMAPHCPAGRADGAPRSVVPAWVTEAPVATLEVRFTPHAEMDLGQLSSQDVGQASFKYFQSAEEAKRAIEAVLSADPRSVYRRKLCQDRLFYFTVDIAHVTCWFGDGFAEVLRIKPASEPVHMTGPVGSLVSLGS	not soluble
SLIRGWLAEGERMKETSYYSYVVGELPKGCQYCVRGEKLVLFVTGVCPRNCFYCPLSPWRRKDVAYANERPIRKIEDIIEEAKIQEARGAGVTGGDPLARLNRTVEYIRTLKEEFGKKFHIHLYTTGILADKRALSMLYDAGLDEIRFHPDLFEPSSKFLNREIENLKNAFDFDWDVGGEVPAVPGFGDRIKWFAEILDKFGGKFLNINELEYSETNLSNILNRGFKLAGENSFAIKGSLELGLEILEWGEKNTSLYYHLCTAKLKDAVQLRNRLRRMAKNVAKPYMEITEDGTLRFGIAEYEDLEELYKFLVEEAEVPKEWLYINWEKKRIEMPVEVAEELAEAIEGDVKFYIVEEYPTWDRIEVERIPLNEG	soluble
MSLSDSQTLVVKLGTSVLTGGSRRLNRAHIVELVRQCAQLHAAGHRIVIVTSGAIAAGREHLGYPELPATIASKQLLAAVGQSRLIQLWEQLFSIYGIHVGQMLLTRADMEDRERFLNARDTLRALLDNNIVPVINENDAVATAAIKVGDNDNLSALAAILAGADKLLLLTDQKGLYTADPRSNPQAELIKDVYGIDDALRAIAGDSVSGLGTGGMSTKLQAADVACRAGIDTIIAAGSKPGVIGDVMEGISVGTLFHAQATPLENRKRWIFGAPPAGEITVDEGATAAILERGSSLLPKGIKSVTGNFSRGEVIRICNLEGRDIAHGVSRYNSDALRRIAGHHSQEIDAILGYEYGPVAVHRDDMITREGHHHHHH	soluble
MNQAWQSQLPLSHIKNIVPVSGGDVNDAFRIETDQEDYFLLVQRKRKSTFFDAEIAGLNLFEKVGITAPRVIDSGEIEDDAYLLLTYLDEGVSGSQEALGQLVARMHSEQQADNQFGFDLPYEGGDISFDNSWTNSWITLFVEKRLDKLKDRLVQQGLWGDADVTQYQAVRRVIVNELESHNSKPSLLHGDLWGGNYMFLTDGSPALFDPAPLYGDREFDIGITSVFGGFTQAFYDAYHKHYPLSEGADVRLEFYRLYLLMVHLVKFGEMYAGSVDRSMQKILNQLEHHHHHH	soluble
